In paper PMC5076532, “The Vesicle Priming Factor CAPS Functions as a Homodimer via C2 Domain Interactions to Promote Regulated Vesicle Exocytosis*” (The Journal of Biological Chemistry, 2016):

Experiments:
[1] = target: the molecule itself; assay: atomic force microscopy (volume analysis); 100 pM CAPS dried onto freshly cleaved mica
[2] = target: the molecule itself; assay: cell-based or functional assay
[3] = target: the molecule itself; assay: native gel or EMSA; blue native (BN-PAGE, 5-14% or 6-14%) or clear native (CN-PAGE, 6%, 4 °C) gels of purified soluble protein without lipid; Coomassie or Western blot (CAPS or Myc antibody); 20 mM HEPES, 10 mM NaCl, 10 mM imidazole, 5% glycerol, pH 7.4 for CN-PAGE
[4] = target: the molecule itself; assay: native gel or EMSA; BN-PAGE of 5 μg of purified protein incubated with 1.5 μg of PI(4,5)P2 (micelles) for 0-30 min

B1: CAPS-Myc-His (recombinant wild-type rat CAPS) (natural protein)
chain: not shown
notes: the CAPS ORF in pcDNA3.1 CAPS-Myc-His; the words 'full length' are used only for the antigen of the antibody; also called CAPS-1; CADPS; source: HEK293-FT, transfected (calcium phosphate), purified (nickel-nitrilotriacetic acid column)
B1 was tested, and the “stoichiometry N” value [1] was 2 and the “Ca2+-dependent norepinephrine secretion from permeable PC12 cells: activity of bound CAPS-Myc-His (exclusively dimer) after wash, relative to added CAPS-Myc-His” value [2] was about 50%.

B2: CAPS(G476E)-Myc-His (natural protein)
chain: not shown
notes: CAPS, Rattus norvegicus, NP_037351.1, point mutant made on pcDNA3.1 CAPS-Myc-His; also called counterpart of unc-31(e714); source: HEK293-FT, transfected, purified as Myc-His fusion protein
B2: binds [3].

B3: CAPS(ΔC2)-Myc-His (natural protein)
chain: not shown
notes: CAPS, Rattus norvegicus, NP_037351.1; amino acids 400-516 deleted from the CAPS ORF, residue 399 directly fused to residue 517; also called ΔC2-CAPS; source: HEK293-FT, transfected, purified as Myc-His fusion protein
B3: binds [4].
